# Data: the supplement of paper PMC9112550, “Optimization of the antimicrobial peptide Bac7 by deep mutational scanning” (BMC Biology, 2022)
# Tested on: Escherichia coli TOP10
# Test: shrunken log2 fold change of peptide-encoding DNA abundance (4.5 h post-induction vs induction); higher = less antimicrobial activity (less host growth inhibition)
# Conditions: time post-induction: 4.5 h; library: site-saturation at positions 5, 18, 19, 20
# 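Also: peptides expressed intracellularly from a pBAD plasmid library in pooled LB shake-flask culture, induced with 0.3% L-arabinose, DNA abundance read by NGS, three biological replicates, DESeq2 with apeglm shrinkage.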
row,Sequence,shrunken log2 fold change
1,RRIRVRPPRLPRPRPRPYSSPRP,-0.644
2,RRIRDRPPRLPRPRPRPMRVPRP,0.304
3,RRIRSRPPRLPRPRPRPFFFPRP,0.168
4,RRIRARPPRLPRPRPRPANKPRP,0.0442
5,RRIRARPPRLPRPRPRPCPWPRP,-0.0222
6,RRIRMRPPRLPRPRPRPYTPPRP,-0.847
7,RRIRGRPPRLPRPRPRPVQYPRP,0.118
8,RRIRMRPPRLPRPRPRPPSNPRP,0.104
9,RRIRNRPPRLPRPRPRPEFIPRP,-0.304
10,RRIRTRPPRLPRPRPRPTDKPRP,-0.55
11,RRIRQRPPRLPRPRPRPCIHPRP,-0.734
12,RRIRIRPPRLPRPRPRPCYEPRP,-0.303
13,RRIRWRPPRLPRPRPRPFPRPRP,0.111
14,RRIRKRPPRLPRPRPRPPAQPRP,0.698
15,RRIRARPPRLPRPRPRPFDCPRP,-0.0326
16,RRIRHRPPRLPRPRPRPGNWPRP,-0.0354
17,RRIRWRPPRLPRPRPRPCSCPRP,0.0968
18,RRIRNRPPRLPRPRPRPTGEPRP,0.394
19,RRIRARPPRLPRPRPRPRQCPRP,0.353
20,RRIRYRPPRLPRPRPRPPIQPRP,-0.589
21,RRIRFRPPRLPRPRPRPRHWPRP,0.437
22,RRIRYRPPRLPRPRPRPMCFPRP,-0.335

row,Sequence,shrunken log2 fold change
1,RRIRIRPPRLPRPRPRPEFVPRP,-0.0754
2,RRIRVRPPRLPRPRPRPLKKPRP,0.181
3,RRIRLRPPRLPRPRPRPDCNPRP,0.0608
4,RRIRDRPPRLPRPRPRPGWCPRP,0.201
5,RRIRTRPPRLPRPRPRPCLVPRP,-0.175
6,RRIRIRPPRLPRPRPRPQVLPRP,-0.338
7,RRIRDRPPRLPRPRPRPCVCPRP,-0.0348
8,RRIRSRPPRLPRPRPRPAYKPRP,-0.136
9,RRIRKRPPRLPRPRPRPERIPRP,0.00934
10,RRIRNRPPRLPRPRPRPQSGPRP,0.0495
11,RRIRYRPPRLPRPRPRPQLNPRP,-1.15
12,RRIRNRPPRLPRPRPRPESTPRP,-0.0329
13,RRIRCRPPRLPRPRPRPWLWPRP,0.0682
14,RRIRFRPPRLPRPRPRPHVAPRP,0.119
15,RRIRYRPPRLPRPRPRPVMSPRP,-0.233
16,RRIRYRPPRLPRPRPRPQIEPRP,0.0413
17,RRIRRRPPRLPRPRPRPVFMPRP,0.251
18,RRIRMRPPRLPRPRPRPTIWPRP,0.52
19,RRIRHRPPRLPRPRPRPARFPRP,0.358
20,RRIRFRPPRLPRPRPRPPQPPRP,0.795
21,RRIRRRPPRLPRPRPRPANYPRP,-0.049
22,RRIRKRPPRLPRPRPRPIIPPRP,0.152

row,Sequence,shrunken log2 fold change
1,RRIRLRPPRLPRPRPRPRQEPRP,0.0259
2,RRIRTRPPRLPRPRPRPLKRPRP,-0.236
3,RRIRYRPPRLPRPRPRPSGAPRP,-0.299
4,RRIRNRPPRLPRPRPRPQVPPRP,0.0184
5,RRIRLRPPRLPRPRPRPMSPPRP,0.0855
6,RRIRERPPRLPRPRPRPEHHPRP,-0.543
7,RRIRTRPPRLPRPRPRPVHQPRP,-0.022
8,RRIRYRPPRLPRPRPRPHTSPRP,-1.04
9,RRIRVRPPRLPRPRPRPWKPPRP,0.0596
10,RRIRTRPPRLPRPRPRPAWCPRP,0.0035
11,RRIRDRPPRLPRPRPRPSCKPRP,-0.1
12,RRIRIRPPRLPRPRPRPNQAPRP,-0.0486
13,RRIRCRPPRLPRPRPRPVRYPRP,0.0829
14,RRIRMRPPRLPRPRPRPRSFPRP,0.307
15,RRIRCRPPRLPRPRPRPCPWPRP,-0.0714
16,RRIRARPPRLPRPRPRPTYRPRP,0.0376
17,RRIRFRPPRLPRPRPRPQDNPRP,-0.186
18,RRIRRRPPRLPRPRPRPWFVPRP,0.214
19,RRIRWRPPRLPRPRPRPCTMPRP,-0.00405
20,RRIRGRPPRLPRPRPRPIPIPRP,0.0541
21,RRIRGRPPRLPRPRPRPWIGPRP,0.0233
22,RRIRARPPRLPRPRPRPMVNPRP,0.309

row,Sequence,shrunken log2 fold change
1,RRIRSRPPRLPRPRPRPYLYPRP,-0.065
2,RRIRSRPPRLPRPRPRPNMNPRP,-0.573
3,RRIRVRPPRLPRPRPRPTYRPRP,-0.594
4,RRIRDRPPRLPRPRPRPQSIPRP,0.00839
5,RRIRDRPPRLPRPRPRPVICPRP,0.0219
6,RRIRKRPPRLPRPRPRPDGEPRP,1.16
7,RRIRERPPRLPRPRPRPRCGPRP,0.146
8,RRIRDRPPRLPRPRPRPLRKPRP,1.36
9,RRIRNRPPRLPRPRPRPWAEPRP,0.125
10,RRIRQRPPRLPRPRPRPQPFPRP,-0.0492
11,RRIRGRPPRLPRPRPRPEVPPRP,0.434
12,RRIRSRPPRLPRPRPRPGANPRP,0.0967
13,RRIRHRPPRLPRPRPRPQLNPRP,-0.593
14,RRIRDRPPRLPRPRPRPHYGPRP,-0.192
15,RRIRYRPPRLPRPRPRPEYCPRP,-0.414
16,RRIRERPPRLPRPRPRPLFYPRP,-0.513
17,RRIRQRPPRLPRPRPRPVDAPRP,-0.0176
18,RRIRARPPRLPRPRPRPMTPPRP,0.913
19,RRIRGRPPRLPRPRPRPFKCPRP,-0.307
20,RRIRIRPPRLPRPRPRPPQQPRP,0.197
21,RRIRPRPPRLPRPRPRPWHYPRP,0.0497
22,RRIRYRPPRLPRPRPRPRSRPRP,0.07

row,Sequence,shrunken log2 fold change
1,RRIRERPPRLPRPRPRPTCEPRP,-0.122
2,RRIRLRPPRLPRPRPRPGRPPRP,0.526
3,RRIRARPPRLPRPRPRPCPIPRP,-0.244
4,RRIRDRPPRLPRPRPRPCCWPRP,0.582
5,RRIRSRPPRLPRPRPRPEPHPRP,0.0658
6,RRIRRRPPRLPRPRPRPPPYPRP,0.366
7,RRIRPRPPRLPRPRPRPYWWPRP,0.0199
8,RRIRNRPPRLPRPRPRPAECPRP,0.0508
9,RRIRLRPPRLPRPRPRPQDFPRP,0.0788
10,RRIRARPPRLPRPRPRPVMCPRP,0.0832
11,RRIRFRPPRLPRPRPRPMQSPRP,-0.208
12,RRIRIRPPRLPRPRPRPRGWPRP,0.385
13,RRIRRRPPRLPRPRPRPSGIPRP,-0.0479
14,RRIRERPPRLPRPRPRPGNHPRP,-0.141
15,RRIRYRPPRLPRPRPRPFWSPRP,-0.363
16,RRIRMRPPRLPRPRPRPFGIPRP,0.0278
17,RRIRTRPPRLPRPRPRPPANPRP,0.0303
18,RRIRFRPPRLPRPRPRPIEMPRP,-0.245
19,RRIRFRPPRLPRPRPRPYGLPRP,-0.521
20,RRIRYRPPRLPRPRPRPGWDPRP,-0.0163
21,RRIRERPPRLPRPRPRPCFCPRP,-0.318
